This passage reports Kd results from publication PMC5624731 (2018).

Common to all, as to assay: nESI-MS
Assay [1] deals with Ferredoxin (Spinacia oleracea, UniProt P00221).
In assay [2] the target is PCBP1 (Homo sapiens, UniProt Q15365).
Assay [3] deals with PCBP1 (apo) (Homo sapiens, UniProt Q15365).

Broadly, the Kd is the concentration at which binding is half-saturated. Read a high Kd as a looser complex.

Chain of PCBP1 (Q15365 whole entry): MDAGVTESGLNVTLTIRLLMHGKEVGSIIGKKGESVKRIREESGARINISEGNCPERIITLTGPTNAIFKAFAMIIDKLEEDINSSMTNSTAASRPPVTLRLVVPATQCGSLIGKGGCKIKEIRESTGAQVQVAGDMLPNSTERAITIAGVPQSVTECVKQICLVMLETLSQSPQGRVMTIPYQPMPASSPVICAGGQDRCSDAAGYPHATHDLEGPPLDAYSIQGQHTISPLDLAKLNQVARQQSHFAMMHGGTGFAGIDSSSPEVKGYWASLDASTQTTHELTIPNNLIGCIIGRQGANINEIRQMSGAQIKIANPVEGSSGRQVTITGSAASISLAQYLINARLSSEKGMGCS
Chain of PCBP1 (apo) (Q15365 whole entry): as above
Chain of Ferredoxin (P00221 51-147): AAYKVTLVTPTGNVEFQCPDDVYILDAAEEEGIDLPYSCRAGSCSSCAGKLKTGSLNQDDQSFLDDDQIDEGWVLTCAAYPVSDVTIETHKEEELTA

B1: Ferredoxin-NADP+ reductase (protein)
chain: QIASDVEAPPPAPAKVEKHSKKMEEGITVNKFKPKTPYVGRCLLNTKITGDDAPGETWHMVFSHEGEIPYREGQSVGVIPDGEDKNGKPHKLRLYSIASSALGDFGDAKSVSLCVKRLIYTNDAGETIKGVCSNFLCDLKPGAEVKLTGPVGKEMLMPKDPNATIIMLGTGTGIAPFRSFLWKMFFEKHDDYKFNGLAWLFLGVPTSSSLLYKEEFEKMKEKAPDNFRLDFAVSREQTNEKGEKMYIQTRMAQYAVELWEMLKKDNTYFYMCGLKGMEKGIDDIMVSLAAAEGIDWIEYKRQLKKAEQWNVEVY
For B1, in assay [1], binding was put at a Kd of 16 µM.

B2: HDAC8 (Zn) (protein)
chain: MEEPEEPADSGQSLVPVYIYSPEYVSMCDSLAKIPKRASMVHSLIEAYALHKQMRIVKPKVASMEEMATFHTDAYLQHLQKVSQEGDDDHPDSIEYGLGYDCPATEGIFDYAAAIGGATITAAQCLIDGMCKVAINWSGGWHHAKKDEASGFCYLNDAVLGILRLRRKFERILYVDLDLHHGDGVEDAFSFTSKVMTVSLHKFSPGFFPGTGDVSDVGLGKGRYYSVNVPIQDGIQDEKYYQICESVLKEVYQAFNPKAVVLQLGADTIAGDPMCSFNMTPVGIGKCLKYILQWQLATLILGGGGYNLANTARCWTYLTGVILGKTLSSEIPDHEFFTAYGPDYVLEITPSCRPDRNEPHRIQQILNYIKGNLKHVV
modifications: Zn2+-bound HDAC8
In the case of B2, binding in assay [2] was characterised by a dissociation constant (Kd) of 60 µM.

B3: HDAC8 (protein)
chain: B2 chain
B3 showed a Kd in assay [2] of 63 µM.

B4: HDAC8 (apo) (protein)
chain: B2 chain
As to B4, in assay [3], binding was put at a Kd of 68 µM. This counts as double-digit micromolar.

B5: HDAC8 (Fe) (protein)
chain: B2 chain
modifications: Fe2+-bound HDAC8
In assay [2], B5 showed a Kd of 44 µM.
